Results reported in patent US20230383007A1 (BIOSION, published 2023).

Legend:
[1] = target: T1, cynomolgus TROP2-his protein (cynomolgus, UniProt P09758 27-272 (human entry), limits assumed); assay: indirect ELISA, plate coated with 1 ug/ml TROP2-his; bacterial culture supernatant
T1 construct: also called Cyno TROP2-his; Cynomolgus monkey TROP2-his protein
T1 chain: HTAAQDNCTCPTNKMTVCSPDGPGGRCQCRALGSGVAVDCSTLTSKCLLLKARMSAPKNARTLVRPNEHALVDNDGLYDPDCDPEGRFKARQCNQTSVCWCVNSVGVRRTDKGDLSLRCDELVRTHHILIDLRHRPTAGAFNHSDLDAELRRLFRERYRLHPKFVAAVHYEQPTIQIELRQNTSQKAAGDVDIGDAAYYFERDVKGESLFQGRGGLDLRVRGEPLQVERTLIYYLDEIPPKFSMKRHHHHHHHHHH
Procedure: ELISA plates were coated with 100 μl 1 μg/ml human TROP2-his protein (in house made with SEQ ID NO: 16), or 1 μg/ml cynomolgus TROP2-his protein (in house made with SEQ ID NO: 19) in carbonate/bicarbonate buffer (pH 9.6) overnight at 4° C., washed once with wash buffer (PBS+0.05% v/v Tween-20, PBST) and then blocked with 200 μl/well blocking buffer (5% w/v non-fatty milk in PBST) for 2 hours at 37° C. Plates were washed 4 times, and respectively incubated with 100 μl bacterial culture supernatant, and sacituzumab (used as the benchmark, also referred to as BM or BM1 hereinafter, in house made with heavy chain and light chain amino acid sequences set forth in SEQ ID NOs: 17 and 18) in 5% w/v non-fatty milk in PBST at 200 ng/ml, for 40 minutes at 37° C. The plates were washed 4 times, and incubated with THE™ HA Tag Antibody [HRP], mAb, Mouse Antibody (1:5000 dilution in PBST, GenScript, Cat #A01296, 100 μl/well, for plates with bacterial culture supernatans of the disclosure) or Peroxidase AffiniPure F(ab′)₂ Fragment Goat Anti-Human IgG, Fey fragment specific (Jackson Immunoresearch, Cat #109-036-098, for plates with the benchmark), for 40 minutes at 37° C. After a final wash, plates were incubated with 100 μl/well ELISA substrate TMB (Innoreagents, Cat #TMB-S-002) at room temperature. The reaction was stopped in 3-10 minutes with 50 μl/well 1M H₂SO₄, and the absorbance of each well was read on a microplate reader using dual wavelength mode with 450 nm for TMB and 630 nm as the reference wavelength. When the OD of a sample well was 2 times higher than the OD of the blank well, the sample can be determined as positive.

human TROP2-his protein = target: T2, human TROP2-his protein (human, UniProt P09758 27-274); assay: competitive ELISA: antibody pre-mixed with biotin labeled human TROP2-his, added to plate coated with the benchmark (sacituzumab analog); unit taken from the x axis (nM)
T2 construct: also called biotin labeled human TROP2-his protein
T2 sequence: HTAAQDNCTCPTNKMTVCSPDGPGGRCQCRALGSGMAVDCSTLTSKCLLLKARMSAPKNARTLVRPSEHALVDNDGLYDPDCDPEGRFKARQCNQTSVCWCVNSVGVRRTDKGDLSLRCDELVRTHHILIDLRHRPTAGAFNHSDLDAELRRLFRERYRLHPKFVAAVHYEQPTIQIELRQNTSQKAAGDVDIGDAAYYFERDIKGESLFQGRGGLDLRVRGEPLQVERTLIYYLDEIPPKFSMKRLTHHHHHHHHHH

B1: single domain antibody 01-9F (VHH)
VHH: QVQLVESGGGSVQAGGSLRLSCVVSGLPYERYCVAWFRQGPGKEREGVARILSDGTTSYSDSVKGRFTISKDNAKNTLYLQMNSLKSEDTATYYCAAEAFRPFTPSDGDCTTVLGIDYWGKGTPVTVSS
With B1 the “Indirect ELISA OD (450-630)” value [1] was 0.59 OD (450-630) and the IC50 (human TROP2-his protein) was 0.247 nM.
